Publication PMC9482650, “Quantitative fragmentomics allow affinity mapping of interactomes” (Nature Communications, 2022)

T1: PARD3B_1, Q8TEW8
T1 sequence (Q8TEW8 196-299, limits assumed, looked up): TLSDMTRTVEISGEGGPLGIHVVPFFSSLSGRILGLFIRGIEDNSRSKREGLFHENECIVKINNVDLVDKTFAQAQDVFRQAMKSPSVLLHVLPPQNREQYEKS

T2: SYNJ2BP, P57105
T2 sequence (P57105 8-110, limits assumed, looked up): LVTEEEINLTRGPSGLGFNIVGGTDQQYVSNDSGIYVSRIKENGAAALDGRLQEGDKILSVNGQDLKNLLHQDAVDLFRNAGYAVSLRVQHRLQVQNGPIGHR

T3: DLG3_3, Q92796
T3 sequence (Q92796 374-475, limits assumed, looked up): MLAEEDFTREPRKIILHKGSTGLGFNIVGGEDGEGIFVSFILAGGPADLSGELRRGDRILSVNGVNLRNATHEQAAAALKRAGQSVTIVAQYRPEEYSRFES

T4: RADIL, Q96JH8
T4 sequence (Q96JH8 971-1071, limits assumed, looked up): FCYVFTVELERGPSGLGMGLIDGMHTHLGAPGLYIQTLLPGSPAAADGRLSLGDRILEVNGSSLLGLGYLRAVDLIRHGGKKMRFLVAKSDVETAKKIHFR

T5: LRRC7, Q96NW7
T5 sequence (Q96NW7 1440-1537, limits assumed, looked up): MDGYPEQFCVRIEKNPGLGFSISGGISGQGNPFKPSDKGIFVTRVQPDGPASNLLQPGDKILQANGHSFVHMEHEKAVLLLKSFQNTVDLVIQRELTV

T6: SNTG2, Q9NY99
T6 sequence (Q9NY99 68-166, limits assumed, looked up): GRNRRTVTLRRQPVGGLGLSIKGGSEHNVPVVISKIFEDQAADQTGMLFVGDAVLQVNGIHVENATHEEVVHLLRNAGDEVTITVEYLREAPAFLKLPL

T7: MPP6, Q9NZW5
T7 sequence (Q9NZW5 125-219, limits assumed, looked up): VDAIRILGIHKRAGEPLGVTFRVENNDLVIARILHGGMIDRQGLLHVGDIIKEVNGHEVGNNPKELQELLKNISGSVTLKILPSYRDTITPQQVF

T8: APBA3_1, O96018
T8 sequence (O96018 389-490, limits assumed, looked up): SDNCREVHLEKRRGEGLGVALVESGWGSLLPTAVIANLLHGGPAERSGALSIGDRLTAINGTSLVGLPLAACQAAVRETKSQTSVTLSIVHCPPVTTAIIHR

T9: LIN7B, Q9HAP6
T9 sequence (Q9HAP6 88-185, limits assumed, looked up): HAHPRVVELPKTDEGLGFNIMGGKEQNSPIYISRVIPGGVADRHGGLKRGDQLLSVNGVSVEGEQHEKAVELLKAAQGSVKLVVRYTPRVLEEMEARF

T10: MPDZ_10, O75970
T10 sequence (O75970 1624-1722, limits assumed, looked up): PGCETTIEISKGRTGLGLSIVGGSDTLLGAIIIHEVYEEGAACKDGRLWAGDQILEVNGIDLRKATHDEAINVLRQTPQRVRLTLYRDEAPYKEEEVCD


Tests used:
Assay in all cases: holdup assay
Design in all cases: key: below the threshold = too weak to quantify, mostly under pKd 3.1 to 4
Conditions in all cases: plain residues with an end cap or a label only (N-terminal biotin on a linker: ado-ado)
DLG5_1, Q8TDM6 = target: DLG5_1, Q8TDM6
Sequence of DLG5_1, Q8TDM6 (Q8TDM6 617-713): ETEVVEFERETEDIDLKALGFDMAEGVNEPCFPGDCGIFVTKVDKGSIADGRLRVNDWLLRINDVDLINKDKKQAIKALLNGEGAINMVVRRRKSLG

PARD3B_1, Q8TEW8 = target: T1, PARD3B_1, Q8TEW8
Inadl_6, Q8NI35 = target: Inadl_6, Q8NI35
Sequence of Inadl_6, Q8NI35 (Q8NI35 1058-1167): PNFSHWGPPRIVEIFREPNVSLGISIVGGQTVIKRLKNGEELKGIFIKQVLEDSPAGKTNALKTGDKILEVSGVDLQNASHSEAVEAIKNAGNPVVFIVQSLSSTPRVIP

SNX27, Q96L92 = target: SNX27, Q96L92
SYNJ2BP, P57105 = target: T2, SYNJ2BP, P57105
DLG3_3, Q92796 = target: T3, DLG3_3, Q92796
AHNAK1, Q09666 = target: AHNAK1, Q09666
Sequence of AHNAK1, Q09666 (Q09666 4-100): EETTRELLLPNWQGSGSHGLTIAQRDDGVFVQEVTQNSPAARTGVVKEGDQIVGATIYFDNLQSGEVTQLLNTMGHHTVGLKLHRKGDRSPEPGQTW

IL16_4, Q14005 = target: IL16_4, Q14005
Sequence of IL16_4, Q14005 (Q14005 1229-1329): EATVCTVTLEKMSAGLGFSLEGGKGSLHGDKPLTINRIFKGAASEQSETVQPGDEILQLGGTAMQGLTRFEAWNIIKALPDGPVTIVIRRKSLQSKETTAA

MAST1, Q9Y2H9 = target: MAST1, Q9Y2H9
Sequence of MAST1, Q9Y2H9 (Q9Y2H9 962-1065): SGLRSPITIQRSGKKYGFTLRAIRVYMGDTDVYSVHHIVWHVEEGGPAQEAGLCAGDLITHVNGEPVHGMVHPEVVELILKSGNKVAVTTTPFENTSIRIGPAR

GRASP, Q7Z6J2 = target: GRASP, Q7Z6J2
Sequence of GRASP, Q7Z6J2 (Q7Z6J2 96-193): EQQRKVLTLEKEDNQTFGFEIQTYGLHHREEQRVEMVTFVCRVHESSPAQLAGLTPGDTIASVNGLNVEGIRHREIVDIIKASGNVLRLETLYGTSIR

RADIL, Q96JH8 = target: T4, RADIL, Q96JH8
Inadl_2, Q8NI35 = target: Inadl_2, Q8NI35
Sequence of Inadl_2, Q8NI35 (Q8NI35 238-335): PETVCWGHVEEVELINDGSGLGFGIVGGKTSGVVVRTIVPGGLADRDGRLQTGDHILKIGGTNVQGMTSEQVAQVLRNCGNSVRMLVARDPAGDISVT

LRRC7, Q96NW7 = target: T5, LRRC7, Q96NW7
SNTG2, Q9NY99 = target: T6, SNTG2, Q9NY99
MAGI1_2, Q96QZ7 = target: MAGI1_2, Q96QZ7
Sequence of MAGI1_2, Q96QZ7 (Q96QZ7 456-580): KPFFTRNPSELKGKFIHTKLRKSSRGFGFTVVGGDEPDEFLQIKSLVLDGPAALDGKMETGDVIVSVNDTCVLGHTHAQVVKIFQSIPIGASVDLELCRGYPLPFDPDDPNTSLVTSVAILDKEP

FRMPD3, Q5JV73 = target: FRMPD3, Q5JV73
Sequence of FRMPD3, Q5JV73 (Q5JV73 12-100): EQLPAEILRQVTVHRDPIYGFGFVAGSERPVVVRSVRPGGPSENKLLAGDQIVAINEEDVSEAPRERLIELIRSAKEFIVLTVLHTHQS

NHERF2_2, Q15599 = target: NHERF2_2, Q15599
Sequence of NHERF2_2, Q15599 (Q15599 142-238): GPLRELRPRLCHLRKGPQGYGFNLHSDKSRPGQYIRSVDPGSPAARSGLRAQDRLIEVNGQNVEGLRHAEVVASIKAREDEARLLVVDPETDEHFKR

MPP6, Q9NZW5 = target: T7, MPP6, Q9NZW5
APBA3_1, O96018 = target: T8, APBA3_1, O96018
PARD3_3, Q8TEW0 = target: PARD3_3, Q8TEW0
Sequence of PARD3_3, Q8TEW0 (Q8TEW0 582-685): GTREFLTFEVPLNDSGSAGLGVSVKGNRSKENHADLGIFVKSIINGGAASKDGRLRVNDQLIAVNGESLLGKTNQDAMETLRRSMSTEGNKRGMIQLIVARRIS

NOS1, P29475 = target: NOS1, P29475
Sequence of NOS1, P29475 (P29475 9-101): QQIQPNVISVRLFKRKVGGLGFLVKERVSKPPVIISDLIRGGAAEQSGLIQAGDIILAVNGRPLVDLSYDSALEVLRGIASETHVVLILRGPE

NHERF4_1, Q86UT5-2 = target: NHERF4_1, Q86UT5-2
Sequence of NHERF4_1, Q86UT5-2 (Q86UT5 other isoform, or with tags, fused parts or gaps): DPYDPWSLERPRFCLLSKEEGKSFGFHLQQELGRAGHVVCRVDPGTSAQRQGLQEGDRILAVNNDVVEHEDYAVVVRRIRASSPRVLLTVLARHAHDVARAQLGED

DLG4_3, P78352 = target: DLG4_3, P78352
Sequence of DLG4_3, P78352 (P78352 306-403): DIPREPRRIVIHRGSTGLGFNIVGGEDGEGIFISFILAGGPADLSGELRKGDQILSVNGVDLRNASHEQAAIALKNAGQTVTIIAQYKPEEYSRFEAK

LIN7B, Q9HAP6 = target: T9, LIN7B, Q9HAP6
DLG1_3, Q12959 = target: DLG1_3, Q12959
Sequence of DLG1_3, Q12959 (Q12959 457-571): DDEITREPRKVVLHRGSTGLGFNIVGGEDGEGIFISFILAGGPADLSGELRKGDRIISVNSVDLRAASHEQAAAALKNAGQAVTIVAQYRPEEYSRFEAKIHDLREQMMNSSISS

TJP2_1, Q9UDY2 = target: TJP2_1, Q9UDY2
Sequence of TJP2_1, Q9UDY2 (Q9UDY2 24-128): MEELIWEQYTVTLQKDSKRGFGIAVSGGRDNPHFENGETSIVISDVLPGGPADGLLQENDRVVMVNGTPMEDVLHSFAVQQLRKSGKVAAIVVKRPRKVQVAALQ

MPDZ_10, O75970 = target: T10, MPDZ_10, O75970
Inadl_9, Q8NI35 = target: Inadl_9, Q8NI35
Sequence of Inadl_9, Q8NI35 (Q8NI35 1530-1615): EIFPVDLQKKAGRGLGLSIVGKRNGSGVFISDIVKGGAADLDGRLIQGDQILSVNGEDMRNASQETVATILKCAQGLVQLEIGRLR

Binder | pKd (DLG5_1, Q8TDM6) | pKd (PARD3B_1, Q8TEW8) | pKd (Inadl_6, Q8NI35) | pKd (SNX27, Q96L92) | pKd (SYNJ2BP, P57105) | pKd (DLG3_3, Q92796) | pKd (AHNAK1, Q09666) | pKd (IL16_4, Q14005) | pKd (MAST1, Q9Y2H9) | pKd (GRASP, Q7Z6J2) | pKd (RADIL, Q96JH8) | pKd (Inadl_2, Q8NI35) | pKd (LRRC7, Q96NW7) | pKd (SNTG2, Q9NY99) | pKd (MAGI1_2, Q96QZ7) | pKd (FRMPD3, Q5JV73) | pKd (NHERF2_2, Q15599) | pKd (MPP6, Q9NZW5) | pKd (APBA3_1, O96018) | pKd (PARD3_3, Q8TEW0) | other results
REEPDHSTEV [CCRL2, O00421] | 3.63 | below the threshold | below the threshold | 4.73 | 5.14 | 3.6 | below the threshold | below the threshold | 4.74 | 3.77 | 3.96 | below the threshold | below the threshold | 3.73 | below the threshold | 3.6 | 3.65 | below the threshold | below the threshold | 3.61 | pKd (NOS1, P29475): below the threshold; pKd (NHERF4_1, Q86UT5-2): 3.53; pKd (DLG4_3, P78352): below the threshold; pKd (LIN7B, Q9HAP6): below the threshold; pKd (DLG1_3, Q12959): below the threshold; pKd (TJP2_1, Q9UDY2): below the threshold; pKd (MPDZ_10, O75970): 3.7; pKd (Inadl_9, Q8NI35): 4
QSYPSKHDYV [CLDN18, P56856] | below the threshold | below the threshold | below the threshold | 3.83 | below the threshold | below the threshold | below the threshold | 3.78 | 4 | 3.71 | 4.35 | below the threshold | below the threshold | below the threshold | below the threshold | below the threshold | below the threshold | below the threshold | below the threshold | 3.69 | pKd (NOS1, P29475): 4.29; pKd (NHERF4_1, Q86UT5-2): 3.81; pKd (DLG4_3, P78352): below the threshold; pKd (LIN7B, Q9HAP6): below the threshold; pKd (DLG1_3, Q12959): 3.49; pKd (TJP2_1, Q9UDY2): 4.16; pKd (MPDZ_10, O75970): 3.64; pKd (Inadl_9, Q8NI35): 4.12
